Data on three molecules can be found in paper doi:10.1101/2023.07.12.548668.

The target of this data set is XLF (UniProt Q9H9Q4 1-299). Nature of the data set: NMR titration (2D lineshape, TITAN); apparent KD; NMR buffer (composition, salt and pH not in material); 800 MHz, 298 K stated for relaxation measurements; EMSA buffer not given. The note with it: protein: recombinant; tags: N-terminal 6xHis-TEV; chain copies: 2; blunt.
XLF, sequence (Q9H9Q4 whole entry): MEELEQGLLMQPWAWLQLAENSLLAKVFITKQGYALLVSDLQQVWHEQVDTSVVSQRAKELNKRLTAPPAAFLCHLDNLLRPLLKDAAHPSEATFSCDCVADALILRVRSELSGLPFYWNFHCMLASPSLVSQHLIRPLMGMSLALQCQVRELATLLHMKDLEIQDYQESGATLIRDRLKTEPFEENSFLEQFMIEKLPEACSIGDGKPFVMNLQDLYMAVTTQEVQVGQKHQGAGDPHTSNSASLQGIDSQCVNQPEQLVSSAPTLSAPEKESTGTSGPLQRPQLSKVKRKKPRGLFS

B1: 30mer AT-rich DNA (dsDNA)
DNA 1: GAAGTAAAATTAAAAAAACAAAAAGAAGCT
DNA 2: AGCTTCTTTTTGTTTTTTTAATTTTACTTC
On to B1, for which the Kd was 4.3 ± 0.42 µM.

B2: 30mer GC-rich DNA (dsDNA)
DNA 1: TACCGGGGCGCGAGCCCAGCGCTCCTCCCA
DNA 2: TGGGAGGAGCGCTGGGCTCGCGCCCCGGTA
Turning to B2, the Kd was 6.39 ± 0.81 µM.

B3: 30mer DNA (random) (dsDNA)
DNA 1: GATCCCTCTAGATATCGGGCCCTCGATCCG
DNA 2: CGGATCGAGGGCCCGATATCTAGAGGGATC
Turning to B3, the Kd was determined as 14.3 ± 0.9 µM.
